Results on 1 variant are retold here after IntAct's records for PubMed 17187077.

To fix the notation:
B1: Nuclear receptor subfamily 2 group C member 1 (Mus musculus), Q505F1 (parent)
chain: MATIEEIAHQIIDQQMGEIVTEQQTGQKIQIVTALDHSTQGKQFILANHEGSTPGKVFLTTPDAAGVNQLFFTSPDLSAPHLQLLTEKSPDQGPNKVFDLCVVCGDKASGRHYGAITCEGCKGFFKRSIRKNLVYSCRGSKDCVINKHHRNRCQYCRLQRCIAFGMKQDSVQCERKPIEVSREKSSNCAASTEKIYIRKDLRSPLAATPTFVTDSETARSAGLLDSGMFVNIHPSGIKTEPAMLMAPDKAESCQGDLSTLASVVTSLANLGKAKDLSHCGGDMPVVQSLRNGDTSFGAFHHDIQTNGDVSRAFDTLAKALTPGESSACQSPEEGMEGSPHLIAGEPSFVEKEGPLLSESHVAFRLTMPSPMPEYLNVHYIGESASRLLFLSMHWALSIPSFQALGQENSISLVKAYWNELFTLGLAQCWQVMNVATILATFVNCLHSSLQQDKMSPERRKSLMEHIFKLQEFCNSMVKLCIDGHEYAYLKAIVLFSPDHPGLENMELIERFQEKAYVEFQDYITRTYPDDTYRLSRLLLRLPALRLMNATITEELFFKGLIGNVRIDSVIPHILKMEPADYNSQIIGHSL

Variants of B1 are the subject of this assay. As to conditions: with pias1_mouse Pias1, O88907.
Sequence of pias1_mouse Pias1, O88907 (O88907 whole entry): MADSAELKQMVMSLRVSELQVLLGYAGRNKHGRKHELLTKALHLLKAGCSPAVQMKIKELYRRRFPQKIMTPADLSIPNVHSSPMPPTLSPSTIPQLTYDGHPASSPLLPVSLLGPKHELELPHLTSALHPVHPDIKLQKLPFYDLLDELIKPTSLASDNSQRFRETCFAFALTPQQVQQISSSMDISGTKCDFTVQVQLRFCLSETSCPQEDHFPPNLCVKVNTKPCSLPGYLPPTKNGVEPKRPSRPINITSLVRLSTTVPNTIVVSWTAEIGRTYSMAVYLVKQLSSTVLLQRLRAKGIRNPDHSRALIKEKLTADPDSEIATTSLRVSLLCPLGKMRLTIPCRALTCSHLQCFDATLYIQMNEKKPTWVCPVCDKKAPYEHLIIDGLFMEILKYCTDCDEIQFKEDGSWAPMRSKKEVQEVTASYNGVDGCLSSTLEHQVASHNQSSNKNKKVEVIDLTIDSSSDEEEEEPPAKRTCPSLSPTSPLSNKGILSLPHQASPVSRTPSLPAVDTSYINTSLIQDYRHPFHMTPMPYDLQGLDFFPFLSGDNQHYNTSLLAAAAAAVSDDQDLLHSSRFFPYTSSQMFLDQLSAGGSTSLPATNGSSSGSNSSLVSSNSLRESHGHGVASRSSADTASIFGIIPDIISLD
Consider MATIEEIAHQIIDQQMGEIVTEQQTGQKIQIVTALDHSTQGKQFILANHEGSTPGKVFLTTPDAAGVNQLFFTSPDLSAPHLQLLTEKSPDQGPNKVFDLCVVCGDKASGRHYGAITCEGCKGFFKRSIRKNLVYSCRGSKDCVINKHHRNRCQYCRLQRCIAFGMKQDSVQCERKPIEVSREKSSNCAASTEKIYIRKDLRSPLAATPTFVTDSETARSAGLLDSGMFVNIHPSGIATEPAMLMAPDKAESCQGDLSTLASVVTSLANLGKAKDLSHCGGDMPVVQSLRNGDTSFGAFHHDIQTNGDVSRAFDTLAKALTPGESSACQSPEEGMEGSPHLIAGEPSFVEKEGPLLSESHVAFRLTMPSPMPEYLNVHYIGESASRLLFLSMHWALSIPSFQALGQENSISLVKAYWNELFTLGLAQCWQVMNVATILATFVNCLHSSLQQDKMSPERRKSLMEHIFKLQEFCNSMVKLCIDGHEYAYLKAIVLFSPDHPGLENMELIERFQEKAYVEFQDYITRTYPDDTYRLSRLLLRLPALRLMNATITEELFFKGLIGNVRIDSVIPHILKMEPADYNSQIIGHSL [K238A], for which the “effect of a mutation on the interaction” value was “decreasing interaction”.
